koff data for 36 molecules are collected here from patent US20250215104A1 (WALDEN BIOSCIENCES, published 2025).

Residue numbers refer to the chain shown, from its start. Numbers in names are those of the source.

B1: WAb0001 (antibody, V domains shown)
VH: QVQLVQSGAEVKKPGASVKVSCKASGYNIKDYYIHWVRQAPGQGLEWMGWISPDSGVTNYAQKFQGRVTMTRDTSTSTVYMELSSLRSEDTAVYYCARGYDVDWFVYWGQGTLVTVSS
VL: DIQMTQSPSSLSASVGDRVTITCSARQSVSYMYWYQQKPGKAPKLLIYRTSNLASGVPSRFSGSGSGTDFTLTISSLQPEDFATYYCQQYHSYPPTFGGGTKVEIK
notes: constant regions not tied to this antibody; also called WAb CD0001
B2: WAb0002 (antibody, V domains shown)
VH: B1 VH with D54S
VL: B1 VL
notes: constant regions not tied to this antibody; also called WAb CD0002
B3: WAb0009 (antibody, V domains shown)
VH: QVQLVQSGAEVKKPGASVKVSCKASGYTFTGHYVHWVRQAPGQGLEWMGWIDHENGNTIYDQKFQGRVTMTRDTSTSTVYMELSSLRSEDTAVYYCARGYDVDWFVYWGQGTLVTVSS
VL: B1 VL with Q27S
notes: constant regions not tied to this antibody; also called WAb CD0009
B4: WAb0005 (antibody, V domains shown)
VH: B3 VH with T30I, H32S
VL: B1 VL with Q27S, N52S
notes: constant regions not tied to this antibody; also called WAb CD0005
B5: WAb0006 (antibody, V domains shown)
VH: B3 VH with G31S, V34I, H35Q, Y100T
VL: B1 VL with Q27S
notes: light chain is WAL0921 (human kappa) with Q27S; also called WAb CD0006; original backup candidate
B6: WAb0003 (antibody, V domains shown)
VH: B1 VH with Y27F, S52D, D54E, S55N, V57S, N59I, A61D, V102I
VL: B1 VL with Q27S
notes: constant regions not tied to this antibody; also called WAb CD0003
B7: WAb0012 (antibody, V domains shown)
VH: B3 VH with H32Y, V34M
VL: B1 VL with V29I
notes: constant regions not tied to this antibody; also called WAb CD0012
B8: WAb0015 (antibody, V domains shown)
VH: B1 VH with N28T, I29F, K30T, D31N, V57G, N59K
VL: B1 VL with Q27S
notes: constant regions not tied to this antibody; also called WAb CD0015
B9: WAb0010 (antibody, V domains shown)
VH: B3 VH with H32N
VL: B1 VL with Q27S
notes: constant regions not tied to this antibody; also called WAb CD0010
B10: WAb0011 (antibody, V domains shown)
VH: B3 VH with H32S
VL: B1 VL with Q27S
notes: constant regions not tied to this antibody; also called WAb CD0011
B11: WAb0008 (antibody, V domains shown)
VH: B3 VH with G31S, V34I, H35Q, Y100T
VL: B1 VL with Q27S
notes: WAb0006 VL + mouse kappa constant; also called WAb CD0008; WAb008
B12: WAb0004 (antibody, V domains shown)
VH: B1 VH with Y27F, S52D, D54E, V57S, N59I, A61D, V102I
VL: B1 VL with Q27S
notes: constant regions not tied to this antibody; also called WAb CD0004
B13: WAb0007 (antibody, V domains shown)
VH: B3 VH with T30I, H32S
VL: B1 VL with Q27S, N52S
notes: also called WAb CD0007
B14: WAb0013 (antibody, V domains shown)
VH: B3 VH with G31N, H32Y, V34M, N57S, D61A
VL: B1 VL
notes: constant regions not tied to this antibody; also called WAb CD0013
B15: suPAR_DB05_D01 (scFv, V domains shown)
VH: B3 VH with Y27H, F29S, G31N, H32Y, V34M, N55G, I59S
VL: B1 VL with Q27S
notes: Screened as scFv
B16: suPAR_DB05_E05 (scFv, V domains shown)
VH: B3 VH with T28N, G31N, H32Y, V34M, E54S, N57S
VL: B1 VL with Q27S
notes: Screened as scFv
B17: suPAR_DB05_C06 (scFv, V domains shown)
VH: B1 VH with Y27F, D31S, S52D, D54N, V57G
VL: B1 VL with Q27S
notes: Screened as scFv
B18: suPAR_DB05_E01 (scFv, V domains shown)
VH: B3 VH with G31N, H32Y, V34M
VL: B1 VL with S24R, Q27S
notes: Screened as scFv
B19: suPAR_DB05_E02 (scFv, V domains shown)
VH: QVQLVQSGAEVKKPGASVKVSCKASGYTFTSYYMHWVRQAPGQGLEWMGWIDLNSGGAKYAQRFQGRVTMTRDTSTSTVYMELSSLRSEDTAVYYCARGYDVDWFVYWGQGTLVTVSS
VL: B1 VL with Q27S
notes: Screened as scFv
B20: suPAR_DB05_D03 (scFv, V domains shown)
VH: B3 VH with T30G, G31N, H32Y, V34M, D61A, Y100N
VL: B1 VL with Q27S
notes: Screened as scFv
B21: suPAR_DB05_E03 (scFv, V domains shown)
VH: B3 VH with Y27H, F29L, T30N, G31S, H32Y, V34I, H53P, E54S, N55G
VL: B1 VL with Q27S
notes: Screened as scFv
B22: suPAR_DB05_C04 (scFv, V domains shown)
VH: B1 VH with Y27F, S52D, D54E, S55N, V57N, N59I, A61D
VL: B1 VL with A54Q
notes: Screened as scFv
B23: suPAR_DB05_D09 (scFv, V domains shown)
VH: B3 VH with G31S, H32Y, V34M, H53P, D61A
VL: B1 VL with Q27S, N52S
notes: Screened as scFv
B24: suPAR_DB05_D11 (scFv, V domains shown)
VH: B3 VH with F29L, H32Y, V34M, H35Q, H53P, N57S
VL: B1 VL with R26S, Q27S
notes: Screened as scFv
B25: suPAR_DB05_C05 (scFv, V domains shown)
VH: B1 VH with D31S, S52D, D54N, V57G, K63N
VL: B1 VL with Q27S
notes: Screened as scFv
B26: suPAR_DB05_D05 (scFv, V domains shown)
VH: B3 VH with G31N, H32Y, V34M, E54S, N57S
VL: B1 VL with S24R
notes: Screened as scFv
B27: suPAR_DB05_C09 (scFv, V domains shown)
VH: B1 VH with N28T, I29F, K30T, D31G, I34M, V57A, N59K, Y60V
VL: B1 VL with Q27S
notes: Screened as scFv
B28: suPAR_DB05_C11 (scFv, V domains shown)
VH: B19 VH with T28I, L53P, N54Y, G57A, A58T, K59N, R63K
VL: B1 VL with S24R, Q27S, V29I
notes: Screened as scFv
B29: suPAR_DB05_D06 (scFv, V domains shown)
VH: B3 VH with T30S, G31S, H32Y, V34M, Y100D
VL: B1 VL with Q27S
notes: Screened as scFv
B30: suPAR_DB05_C08 (scFv, V domains shown)
VH: B3 VH with G31S, H32Y, V34M, H53P
VL: B1 VL with S24R
notes: Screened as scFv
B31: suPAR_DB05_D08 (scFv, V domains shown)
VH: B19 VH with S31R, M48V, L53P, N54H, A58T, K59N, R63K, V102I
VL: B1 VL
notes: Screened as scFv
B32: suPAR_DB05_E04 (scFv, V domains shown)
VH: B3 VH with T28S, G31S, H32N, V34M
VL: B1 VL with Q27S
notes: Screened as scFv
B33: suPAR_DB05_D12 (scFv, V domains shown)
VH: B3 VH with Y27F, G31N, H32Y, V34F, H53P
VL: B1 VL with Q27S
notes: Screened as scFv
B34: suPAR_DB05_C07 (scFv, V domains shown)
VH: B3 VH with G31S, N55G, N57S, I59S
VL: B1 VL with S24R
notes: Screened as scFv
B35: suPAR_DB05_D10 (scFv, V domains shown)
VH: B3 VH with T30S, G31N, H32Y, V34I, Y100T
VL: B1 VL with S24R
notes: Screened as scFv
B36: suPAR_DB05_D02 (scFv, V domains shown)
VH: B3 VH with F29I, H32N, V34M, N57S
VL: B1 VL with V29I
notes: Screened as scFv

In the first assay the target is T1, human soluble urokinase plasminogen activator receptor (suPAR) (human, UniProt Q03405 23-303, limits assumed).
T1 construct: also called hsuPAR; human suPAR
In words: dissociation rate (kdis) on human suPAR; method not stated.
T1 sequence (Q03405 23-303 limits assumed): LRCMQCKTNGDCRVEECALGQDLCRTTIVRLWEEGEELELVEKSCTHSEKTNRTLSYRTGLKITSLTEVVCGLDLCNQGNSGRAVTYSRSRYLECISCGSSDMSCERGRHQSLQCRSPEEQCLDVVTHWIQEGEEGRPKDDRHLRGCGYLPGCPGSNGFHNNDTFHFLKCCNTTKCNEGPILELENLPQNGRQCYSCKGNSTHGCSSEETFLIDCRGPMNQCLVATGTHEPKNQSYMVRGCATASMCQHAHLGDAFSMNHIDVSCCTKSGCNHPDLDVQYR
Broadly, the koff is the first-order rate constant of dissociation. In turn, B1 displayed a koff of 3.04e-07 s⁻¹.

B2 returned a koff of 8.37e-05 s⁻¹.

B3 gave a koff of 3.47e-07 s⁻¹.

Molecule B4 gave an off-rate (koff) of 3.97e-07 s⁻¹.

B5 registered a dissociation rate constant (koff) of 3.39e-07 s⁻¹.

Consider B6, for which the dissociation rate constant (koff) was 3.57e-07 s⁻¹. The koff values of the last two molecules are within 1.5-fold of each other.

Turning to B7, the koff came out at 2.93e-07 s⁻¹.

On to B8, for which the off-rate (koff) was determined as 2.97e-07 s⁻¹.

B9 showed a koff of 3.89e-07 s⁻¹.

As to B10, the off-rate constant (koff) was determined as 2.36e-07 s⁻¹. This koff is about 1.6-fold lower than that of the molecule before.

With B11, the koff was found to be 2.83e-07 s⁻¹.

The molecule B12 showed an off-rate (koff) of 2.61e-07 s⁻¹.

B13 came in with a koff of 2.76e-07 s⁻¹.

With B14, the off-rate (koff) was determined as 2.44e-07 s⁻¹. This koff and that of the molecule before are within 1.5-fold of each other.

The next assay deals with T2, cynomolgus soluble urokinase plasminogen activator receptor (suPAR) (cynomolgus, UniProt Q9GK78 23-303, limits assumed).
T2 construct: Column head says only 'cynomologus'; also called cynomolgus suPAR; cynomolgus uPAR
T2 sequence (Q9GK78 23-303 limits assumed): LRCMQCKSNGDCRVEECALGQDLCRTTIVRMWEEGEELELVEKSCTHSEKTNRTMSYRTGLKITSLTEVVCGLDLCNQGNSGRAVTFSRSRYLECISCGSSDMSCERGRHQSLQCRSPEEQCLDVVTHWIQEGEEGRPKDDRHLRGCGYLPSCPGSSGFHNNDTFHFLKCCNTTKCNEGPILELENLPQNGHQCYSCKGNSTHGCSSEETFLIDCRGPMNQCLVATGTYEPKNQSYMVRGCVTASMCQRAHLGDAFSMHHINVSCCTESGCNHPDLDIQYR
In words: BLI (Octet) off-rate screen of scFv clones.
Take B15: the koff came out at 0.000315 s⁻¹.

Consider B16, for which the off-rate constant (koff) is 0.000298 s⁻¹.

B17 returned a koff of 0.000123 s⁻¹.

Consider B18, for which the koff came out at 0.000767 s⁻¹.

Regarding B19, the off-rate constant (koff) amounted to 0.000824 s⁻¹.

In the case of B20, the koff came out at 0.00124 s⁻¹.

In turn, B21 showed an off-rate (koff) of 0.000265 s⁻¹. Compared with the last molecule, the koff is about 4.7-fold lower.

For B22, the koff amounted to 0.000457 s⁻¹.

Molecule B23 returned a dissociation rate constant (koff) of 0.000666 s⁻¹. The koff values of the last two molecules are within 1.5-fold of each other.

In the case of B24, the koff is 0.000775 s⁻¹.

B25 had a dissociation rate constant (koff) of 0.000202 s⁻¹.

Consider B26, for which the off-rate (koff) was determined as 0.000669 s⁻¹.

As for B27, the off-rate constant (koff) is 0.000464 s⁻¹. This koff and that of the molecule before are within 1.5-fold of each other.

For B28, the koff was 0.000168 s⁻¹.

In turn, B29 gave a koff of 0.000375 s⁻¹. Against the preceding molecule, the koff is about 2.2-fold higher.

The molecule B30 yielded a koff of 0.000548 s⁻¹. This koff and that of the molecule before are within 1.5-fold of each other.

On to B31, for which the off-rate (koff) worked out at 7.69e-05 s⁻¹.

In turn, B32 registered a koff of 0.000354 s⁻¹. This koff lies about 4.6-fold higher than the previous one.

B33 yielded a koff of 0.000352 s⁻¹. The koff values of the last two molecules are within 1.5-fold of each other.

Molecule B34 gave a dissociation rate constant (koff) of 0.000237 s⁻¹.

B35 came in with an off-rate (koff) of 0.000851 s⁻¹.

Take B36: the koff was determined as 0.000435 s⁻¹.

Another assay has as its target T3, human soluble urokinase plasminogen activator receptor (suPAR) (human, UniProt Q03405 23-303, limits assumed).
T3 construct: Column head says only 'human'; also called hsuPAR; human suPAR
Put plainly: BLI (Octet) off-rate screen of scFv clones. For orientation: BLI is a label-free optical method that tracks binding on a fibre tip over time.
T3 sequence (Q03405 23-303 limits assumed): as the sequence (Q03405 23-303 limits assumed) above
Molecule B15 returned a koff of 0.00533 s⁻¹.

In turn, B16 showed an off-rate constant (koff) of 0.00165 s⁻¹.

In turn, B17 registered a koff of 0.00507 s⁻¹. Against the preceding molecule, the koff is about 3.1-fold higher.

B18 gave a koff of 0.00208 s⁻¹.

For B19, the dissociation rate constant (koff) was determined as 0.00517 s⁻¹.

The molecule B20 yielded a dissociation rate constant (koff) of 0.00345 s⁻¹. The koff values of the last two molecules are within 1.5-fold of each other.

In the case of B21, the off-rate (koff) came to 0.00535 s⁻¹.

B22 came in with a koff of 0.00452 s⁻¹.

In turn, B23 came in with a koff of 0.00384 s⁻¹.

Take B24: the koff was determined as 0.00555 s⁻¹.

B25 returned a koff of 0.00547 s⁻¹.

B26 displayed an off-rate (koff) of 0.001 s⁻¹.

B27 returned a koff of 0.00384 s⁻¹.

As to B28, the koff was found to be 0.00335 s⁻¹. The koff values of the last two molecules are within 1.5-fold of each other.

Turning to B29, the koff was 0.00345 s⁻¹.

The molecule B30 yielded a dissociation rate constant (koff) of 0.00284 s⁻¹.

With B31, the koff was 0.00471 s⁻¹.

In turn, B32 came in with a koff of 0.00544 s⁻¹.

Consider B33, for which the off-rate (koff) amounted to 0.00477 s⁻¹.

In turn, B34 displayed a koff of 0.00431 s⁻¹.

As to B35, the off-rate (koff) was 0.006 s⁻¹.

The molecule B36 came in with a koff of 0.00116 s⁻¹.
